Assay [1] concerns the target T1, MBP-SRA-RING DNA^mut (G448D) (human, UniProt Q96T88 405-793, G448D).
T1 construct: human UHRF1 SRA-RING, amino acids 405-793, with G448D (DNA^mut); source: E. coli, purified as described for UHRF1
T1 sequence (looked up): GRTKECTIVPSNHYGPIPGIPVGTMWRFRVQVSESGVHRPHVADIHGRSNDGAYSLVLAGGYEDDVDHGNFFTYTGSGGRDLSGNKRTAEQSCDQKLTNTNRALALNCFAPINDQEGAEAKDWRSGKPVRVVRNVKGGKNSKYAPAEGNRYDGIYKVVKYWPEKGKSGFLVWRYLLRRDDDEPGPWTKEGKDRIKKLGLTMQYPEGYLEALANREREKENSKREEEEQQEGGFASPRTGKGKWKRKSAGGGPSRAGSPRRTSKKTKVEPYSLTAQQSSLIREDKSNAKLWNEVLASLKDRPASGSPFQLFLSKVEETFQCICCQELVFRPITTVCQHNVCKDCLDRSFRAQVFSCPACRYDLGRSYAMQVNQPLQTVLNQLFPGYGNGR
The experiment in a line: pull-down; as a2 with SRA-RING DNA^mut in the presence of 5 uM DNA. The note with it: both partners purified.

In assay [2] the target is T2, His-MBP-tagged UHRF1 SRA-RING (amino acids 405-793) (human, UniProt Q96T88 405-793).
T2 construct: human UHRF1 SRA-RING, amino acids 405-793; also called MBP-SRA-RING; source: E. coli, purified as described for UHRF1
T2 sequence (looked up): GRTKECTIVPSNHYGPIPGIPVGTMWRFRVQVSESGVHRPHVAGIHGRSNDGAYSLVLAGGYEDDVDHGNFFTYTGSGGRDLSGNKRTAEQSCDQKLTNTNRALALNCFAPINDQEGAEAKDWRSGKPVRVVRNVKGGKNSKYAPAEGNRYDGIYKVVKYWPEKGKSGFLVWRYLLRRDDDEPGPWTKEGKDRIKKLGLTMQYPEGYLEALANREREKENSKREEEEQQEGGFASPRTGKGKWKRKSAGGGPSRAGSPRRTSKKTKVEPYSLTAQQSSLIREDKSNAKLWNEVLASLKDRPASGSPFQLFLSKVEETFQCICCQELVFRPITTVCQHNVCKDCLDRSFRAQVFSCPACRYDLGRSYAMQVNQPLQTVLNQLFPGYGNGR
Nature of the assay: pull-down; proteins each at 1 uM incubated overnight at 4 C with MBP magnetic beads in 50 mM Tris-HCl pH 8.0, 100 mM NaCl, 0.1% NP-40, 0.5% BSA; blot with GST antibody; also done with 25 uM H3_(1-20)K9me2 peptide, which did not inhibit. The note with it: both partners purified.

B1: GST-tagged UHRF1 TTD-PHD (amino acids 123-366) (domain or fragment, human, UniProt Q96T88 123-366, looked up)
chain: DEDMWDETELGLYKVNEYVDARDTNMGAWFEAQVVRVTRKAPSRDEPCSSTSRPALEEDVIYHVKYDDYPENGVVQMNSRDVRARARTIIKWQDLEVGQVVMLNYNPDNPKERGFWYDAEISRKRETRTARELYANVVLGDDSLNDCRIIFVDEVFKIERPGEGSPMVDNPMRRKSGPSCKHCKDDVNRLCRVCACHLCGGRQDPDKQLMCDECDMAFHIYCLDPPLSSVPSEDEWYCPECRND
notes: human UHRF1 linked tandem Tudor domain and plant homeodomain (TTD-PHD), amino acids 123-366; also called GST-TTD-PHD; source: produced as previously described (Rothbart et al., 2013)
Take B1: the binding result in assay [1] and in assay [2] was “binds” throughout.

Source of the values: PMC5012860, “Hemi-methylated DNA regulates DNA methylation inheritance through allosteric activation of H3 ubiquitylation by UHRF1” (eLife, 2016).
